Data on nine substances can be found in patent US20250361274A1, “PEPTIDE AND PEPTIDE-CONTAINING AGENT” (PEPTIDREAM INC., priority 2022, published 2025).

Numbered stars: 1 amine (or outer) side, 2 acyl side, 3 side chain; on linkers, the order of the positions; unused ones are H or OH. Bridge positions count the residues as written; N and C are the ends. Square brackets hold non-standard residues; d marks the D form. Ends that are not written are not given here. KCOpipzaa = N6-(4-(carboxymethyl)piperazine-1-carbonyl)-L-lysine, O=C(NCCCC[C@H](N[*:1])C(=O)[*:2])N1CCN(CC(=O)[*:3])CC1; Bph3F = (S)-2-amino-3-(3'-fluoro-[1,1'-biphenyl]-4-yl)propanoic acid, O=C([C@H](Cc1ccc(-c2cccc(F)c2)cc1)N[*:1])[*:2]; Cha4tH = (S)-2-amino-3-((1r,4S)-4-hydroxycyclohexyl)propanoic acid, O=C([C@H](C[C@H]1CC[C@H](O[*:3])CC1)N[*:1])[*:2]; 3Pal(6-Ph) = N[C@@H](Cc1ccc(-c2ccccc2)nc1)C(=O)O; Phe(4-COOH) = N[C@@H](Cc1ccc(C(=O)O)cc1)C(=O)O; NMePhe(4-Me) = CN[C@@H](Cc1ccc(C)cc1)C(=O)O; Bip = N[C@@H](Cc1ccc(-c2ccccc2)cc1)C(=O)O; Phe(4-F) = N[C@@H](Cc1ccc(F)cc1)C(=O)O; Ala(4-THP) = N[C@@H](CC1CCOCC1)C(=O)O; Hyp = O=C(O)[C@@H]1C[C@@H](O)CN1; NMeF = CN[C@@H](Cc1ccccc1)C(=O)O; 4Pal = N[C@@H](Cc1ccncc1)C(=O)O; Aad = N[C@@H](CCCC(=O)O)C(=O)O; Cha = N[C@@H](CC1CCCCC1)C(=O)O; Cba = N[C@@H](CC1CCC1)C(=O)O; βAla = NCCC(=O)O

One assay deals with T1, BMP4 (Homo sapiens, UniProt P12644).
T1 sequence (P12644 293-408): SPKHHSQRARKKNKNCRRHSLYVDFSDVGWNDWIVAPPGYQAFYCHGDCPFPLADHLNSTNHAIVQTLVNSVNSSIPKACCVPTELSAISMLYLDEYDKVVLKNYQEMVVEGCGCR
As to the kind of experiment: BMP4 signal transduction inhibitory activity: SMAD1 phosphorylation by BMP4 stimulus, AlphaLISA SureFire, A549 cells. To be noted: for aLISA BMP4: inhibition of SMAD1 phosphorylation by BMP4 stimulus, A549 cells, peptides of Synthesis 2, classes A-C, ND. It is filed as cell-based. As for the experimental part: In the present Example, a BMP4 signal transduction inhibitory activity of each peptide consisting of an amino acid sequence set forth in any of SEQ ID NOs: 5 to 240 and 243 to 421 synthesized in Example 10 was verified by phosphorylation of SMAD1 caused by BMP4 stimulus. A549 cells were cultured in MEM (Thermo Fisher Scientific) containing 10% FBS (Thermo Fisher Scientific), 1×Non-essential amino acids (Thermo Fisher Scientific), and 50 μg/mL Gentamicin. After TrypLE (Gibco) was used to peel the cells, seeding was performed in a 96-well plate for adhesion cells so that the number of cells would be 20,000 per well, followed by culturing for 48 hours. After the cells were cultured as described above, the culture medium was replaced with a peptide solution or recombinant Human Noggin Protein (R&D) solution as a positive control diluted to various concentrations in a nutrition-starved culture medium containing 0.1% BSA (Sigma) instead of FBS Thirty minutes after culturing, […], to stimulate it for 60 minutes. The culture medium was removed and the cells were lysed with Lysis Buffer provided with AlphaLISA (registered trademark) SureFire (registered trademark) Ultra SMAD1 (p-[…]/465) Assay kit (PerkinElmer). According to the protocol of the kit, a signal was detected using SpectraMax (registered trademark) Paradigm (registered trademark) multimode microplate reader (Molecular Devices). The obtained signal was analysed using GraphPad Prism (GraphPad Software). The % inhibition was calculated by considering non-stimulation as 100% inhibition and BMP stimulation only as 0% inhibition. Regarding SEQ ID NOs: 5 to 187, the concentrations of the peptides synthesized in the same manner as in Example 2 (shown as 2 in the row of Synthesis) were 0.02 nM, 0.2 nM, and 2 nM, and the concentrations of the peptides synthesized in the same manner as in Example 1 (shown as 1 in the row of Synthesis) were 0.2 nM, 2 nM, and 20 nM. The evaluation results were based on the results of evaluation using the peptides synthesized in the same manner as in Example 2. […] Regarding SEQ ID NOs: 243 to 321, the test was performed at the concentrations described in Table 6. […] Regarding SEQ ID NOs: 322 to 421, the test was performed at the concentrations described in Table 7. […] The evaluation tests of the signal transduction inhibitory activities of SEQ ID NOs: 87, 177, and 181 are as follows. Specifically, the inhibitory activity of BMP4 was evaluated in the same manner as in Example 11 that used A549 cells. Eight concentrations of the peptides were used at a common ratio of 1/3 starting from 2 nM. The inhibitory activity of BMP7 was evaluated in the same manner as in Example 12. Eight concentrations of the peptides were used at a common ratio of 1/3 starting from 100 nM. Note that recombinant Human Noggin Protein (R&D) as a positive control was used at the same concentration as that of the peptide. […] The inhibitory activity of BMP7 was evaluated using eight concentrations of the peptides at a common ratio of 1/3 starting from 1,000 nM in the same manner as in Example 12.
A general note: Alpha assays give light when donor and acceptor beads are brought close together.

A further assay has as its target T2, BMP7 (Homo sapiens, UniProt P18075).
T2 sequence (P18075 293-431): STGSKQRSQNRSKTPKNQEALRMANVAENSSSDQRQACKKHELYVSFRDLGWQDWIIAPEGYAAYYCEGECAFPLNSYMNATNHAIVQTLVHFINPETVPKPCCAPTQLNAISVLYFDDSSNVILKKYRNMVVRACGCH
Description: BMP7 signal transduction inhibitory activity: SMAD1 phosphorylation by BMP7 stimulus, A549 cells. To be noted: for aLISA BMP7: inhibition of SMAD1 phosphorylation by BMP7 stimulus, A549 cells, peptides of Synthesis 2, classes A-D, ND. It is filed as cell-based. How it is done:
In the present Example, BMP7 signal transduction inhibitory activity of each peptide consisting of an amino acid sequence set forth in any of SEQ ID NOs: 5 to 240 and 243 to 421 synthesized in Example 10 was verified by phosphorylation of SMAD1 caused by BMP7 stimulus. The evaluation was performed using 10 nM of BMP7 instead of BMP 4. Regarding SEQ ID NOs: 5 to 240, the concentrations of the peptides synthesized in the same manner as in Example 2 (shown as 2 in the row of Synthesis) were 1 nM, 10 nM, and 100 nM, and the concentrations of the peptides synthesized in the same manner as in Example 1 (shown as 1 in the row of Synthesis) were 10 nM, 100 nM, and 1,000 nM, similarly with Example 11. […] Regarding SEQ ID NOs: 243 to 273 and SEQ ID NOs: 299 to 321, the test was performed at the concentrations (10, 100, 1,000 nM) described in Table 6. […] Regarding SEQ ID NOs: 274 to 298, the test was performed at the concentrations (100, 300, 1,000 nM) described in Table 6. […] Regarding SEQ ID NOs: 322 to 370 and SEQ ID NOs: 393 to 421, the test was performed at the concentrations (1, 10, 100 nM). […] Regarding SEQ ID NOs: 371 to 391, the test was performed at the concentrations (10, 30, 90 nM). […] The evaluation tests of the signal transduction inhibitory activities of SEQ ID NOs: 87, 177, and 181 are as follows. Specifically, the inhibitory activity of BMP4 was evaluated in the same manner as in Example 11 that used A549 cells. Eight concentrations of the peptides were used at a common ratio of 1/3 starting from 2 nM. The inhibitory activity of BMP7 was evaluated in the same manner as in Example 12. Eight concentrations of the peptides were used at a common ratio of 1/3 starting from 100 nM. Note that recombinant Human Noggin Protein (R&D) as a positive control was used at the same concentration as that of the peptide. […] The inhibitory activity of BMP7 was evaluated using eight concentrations of the peptides at a common ratio of 1/3 starting from 1,000 nM in the same manner as in Example 12.

Setting [1] is: BMP4 0.2 nM, peptide 0.02, 0.2, 2 nM, Table 6.
Where [2] appears, read: BMP7 10 nM, peptide 10, 100, 1000 nM, Table 6.

On to “79 ({CH2CO}-E[KCOpipzaa]VYVDR[Bip][KCOpipzaa]YP[Bip][Phe(4-F)][Phe(4-COOH)][Phe(4-COOH)]SCG-NH2; thioether N-17; not fully specified) [compound 79]”, for which, in the assay with BMP4, the “aLISA BMP4” value is “C (showed an inhibitory activity of less than 50% in 0.2 nM-addition zone and showed an inhibitory activity of 50% or more in 2 nM-addition zone were defined as B or C)”. For the same substance, the “aLISA BMP7” value in the assay with BMP7 is listed as “D (showed less than 50% of inhibitory activity in 100 nM-addition zone)”.

On to “310 (ERV[Phe(4-COOH)][Ala(4-THP)][KCOpipzaa]R[3Pal(6-Ph)][KCOpipzaa]Y[Hyp][Bip]Y[Phe(4-COOH)][Phe(4-COOH)]SCG-NH2; not fully specified (N-terminus, bridges); also: cyclic peptide, ring closure not given here) [compound 310]”, for which the “aLIZA BMP4 (0.2 nM) % inh” value with BMP4 (setting [1]) was “C (showed less than 30% of inhibitory activity in 0.2 nM-addition zone and showed 30% or more of inhibitory activity in 2 nM-addition zone)”. Besides, the “aLIZA BMP7 (10 nM) % inh” value with BMP7 (setting [2]) was “E (showed less than 30% of inhibitory activity in 100 nM-addition zone and showed 30% or more of inhibitory activity in 1,000 nM-addition zone)”.

Regarding “413 ([Phe(4-F)]G[NMeF]G[3Pal(6-Ph)]GDE[Cha][Aad][NMePhe(4-Me)]L[Phe(4-COOH)]C[βAla][dE]) [compound 413]”, in the assay with BMP4 (BMP4 0.2 nM stimulus, peptide conc. in assay 0.2, 2, 20 nM), the “aLISA BMP4 (0.2 nM) % inh” value was “ND (the inhibitory activity was less than 30% at the maximum concentration evaluated)”. Also, the “aLISA BMP7 (10 nM) % inh” value with BMP7 (BMP7 10 nM stimulus, peptide conc. in assay 1, 10, 100 nM) is “D (showed less than 30% of inhibitory activity in 10 nM-addition zone and showed 30% or more of inhibitory activity in 100 nM-addition zone)”.

As to “306 (ERV[Phe(4-COOH)][Cba][KCOpipzaa]R[3Pal(6-Ph)][KCOpipzaa]Y[Hyp][Bip]Y[Phe(4-COOH)][Phe(4-COOH)]SCG-NH2; not fully specified) [compound 306]”, in the assay with BMP4 (setting [1]), the “aLIZA BMP4 (0.2 nM) % inh” value was “C (showed less than 30% of inhibitory activity in 0.2 nM-addition zone and showed 30% or more of inhibitory activity in 2 nM-addition zone)”. Moreover, in the assay with BMP7 (setting [2]), the “aLIZA BMP7 (10 nM) % inh” value is “E (showed less than 30% of inhibitory activity in 100 nM-addition zone and showed 30% or more of inhibitory activity in 1,000 nM-addition zone)”.

For “294 (ERV[Phe(4-COOH)][Cha4tH][KCOpipzaa]R[3Pal(6-Ph)][KCOpipzaa]Y[Hyp][Bip]Y[Phe(4-COOH)][Phe(4-COOH)]SCG-NH2; not fully specified) [compound 294]”, the “aLIZA BMP4 (0.2 nM) % inh” value with BMP4 (BMP4 0.2 nM stimulus, peptide conc. in assay 0.02, 0.2, 2 nM, class symbols) is “B (showed less than 30% of inhibitory activity in 0.02 nM-addition zone and showed 30% or more of inhibitory activity in 0.2 nM-addition zone)”. Further, in the assay with BMP7 (BMP7 10 nM stimulus, peptide conc. in assay 100, 300, 1000 nM, class symbols), the “aLIZA BMP7 (10 nM) % inh” value is recorded as “F (showed 30% or more of inhibitory activity in 100 nM-addition zone)”.

“320 (ERV[Phe(4-COOH)][Cha4tH][KCOpipzaa]R[3Pal(6-Ph)][KCOpipzaa]Y[Hyp][Bph3F][4Pal][Phe(4-COOH)][Phe(4-COOH)]SCG-NH2; not fully specified) [compound 320]”: in the assay with BMP4 (setting [1]), the “aLIZA BMP4 (0.2 nM) % inh” value was “B (showed less than 30% of inhibitory activity in 0.02 nM-addition zone and showed 30% or more of inhibitory activity in 0.2 nM-addition zone)”. In the assay with BMP7 (setting [2]), the “aLIZA BMP7 (10 nM) % inh” value was “E (showed less than 30% of inhibitory activity in 100 nM-addition zone and showed 30% or more of inhibitory activity in 1,000 nM-addition zone)”.

As to “123 ({CH2CO}-ERV[Phe(4-COOH)]V[KCOpipzaa]R[Bip]PYV[Bip]Y[Phe(4-COOH)][Phe(4-COOH)]SC[βAla][dE]-OH; thioether N-17; not fully specified) [compound 123]”, the “aLISA BMP4” value in the assay with BMP4 was “A (showed an inhibitory activity of 50% or more in a zone to which the peptide was added to in an amount of 0.2 nM)”. Further, the “aLISA BMP7” value with BMP7 was “C (showed less than 50% of inhibitory activity in 10 nM-addition zone and showed 50% or more of inhibitory activity in 100 nM-addition zone)”.

For the substance “371 (FGFGFGDDAAFLHCG; not fully specified; MOD_RES 3 F represents Methyl-L-phenylalanine(MeF); MOD_RES 5 F represents (S)-3-(1,1'-Biphenyl-4-yl)-2-aminopropanoic acid(Bph); MOD_RES 9 A represents (S)-2-Amino-3-cyclohexylpropanoic acid(Cha); MOD_RES 11 F represents Methyl-L-phenylalanine(MeF)) [compound 371]”, the “aLISA BMP4 (0.2 nM) % inh” value with BMP4 (SMAD1 phosphorylation, BMP4 0.2 nM, peptide conc. in assay 2, 20, 200 nM) is “A (showed less than 30% of inhibitory activity in 2 nM-peptide-addition zone and showed 30% or more of inhibitory activity in 20 nM-addition zone)”. Further, the “aLISA BMP7 (10 nM) % inh” value in the assay with BMP7 (SMAD1 phosphorylation, BMP7 10 nM, peptide conc. in assay 10, 30, 90 nM) is “E (showed 30% or more of inhibitory activity in 10 nM-addition zone)”.

“358 (FG[NMeF]G[Bip]GDE[Cha]A[NMeF]LHCG-NH2; not fully specified (N-terminus, bridges)) [compound 358]”: in the assay with BMP4 (SMAD1 phosphorylation, BMP4 0.2 nM, peptide conc. in assay 0.2, 2, 20 nM), the “aLISA BMP4 (0.2 nM) % inh” value is “ND (the inhibitory activity was less than 30% at the maximum concentration evaluated)”. Also, the “aLISA BMP7 (10 nM) % inh” value in the assay with BMP7 (SMAD1 phosphorylation, BMP7 10 nM, peptide conc. in assay 1, 10, 100 nM) was “D (showed less than 30% of inhibitory activity in 10 nM-addition zone and showed 30% or more of inhibitory activity in 100 nM-addition zone)”.
